# B1: INTS4 (parent)
# chain: YSSGEFSSGRKWGDDAPKEEVDTG
# B2: CAMK2A (parent)
# chain: CIQQILEAVLHCHQMGVVHRDLKP
# Variants of: B1
# Test: protein stability index of a GFP-peptide fusion (GPS, HEK-293T) (PSI 1-6); higher = more stable
# Details: c terminus: a fixed tail appended
# 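Also: lentivirally expressed fusions sorted by FACS into six bins by GFP to DsRed ratio, PSI derived from sequencing read proportions per bin multiplied by bin number.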
row,Variant,protein stability index
1,Y1Q,5.66
2,Y1S,5.81
3,Y1R,5.71
4,Y1H,5.51
5,Y1L,5.79
6,Y1V,5.8
7,Y1K,5.62
8,Y1C,3.87
9,Y1D,5.8
10,Y1A,4.93
11,Y1P,5.42
12,Y1G,5.47
13,Y1N,5.22
14,Y1M,5.39
15,Y1T,5.12
16,Y1I,5.55
17,Y1W,4.52
18,Y1E,5.74
19,S2G,1.95

row,Variant,protein stability index
1,S2F,4.02
2,S2P,2.31
3,S2M,3.97
4,S2Q,2.48
5,S2I,2.42
6,S2L,3.48
7,S2K,5.2
8,S2Y,4.92
9,S2D,5.77
10,S2E,5.4
11,S2N,4.64
12,S2R,5.05
13,S2V,1.59
14,S2W,3.81
15,S2H,1.48
16,S2A,2.28
17,S2C,2.04
18,S2T,2.67

# Variants of: B2
# Test: as above
# Details: c terminus: a fixed tail appended
row,Variant,protein stability index
1,L6E,2.44
2,L6F,1.07
3,L6C,1.84
4,L6V,2.88
5,L6Y,2.13
6,L6H,1.77
7,L6W,1.87
8,L6P,1.83
9,L6Q,2.09
10,L6K,2.4
11,L6A,1.4
12,L6T,1.69
13,L6I,2.64
14,L6R,1.97
15,L6N,1.98
16,L6M,2.75
17,L6D,2.93
18,L6G,2.14
19,L6S,1.71
20,V9A,1.86
21,V9I,2.04
22,V9N,1.96
23,V9Y,3.08
24,V9C,2.82
25,V9D,1.83

row,Variant,protein stability index
1,V9W,2.45
2,V9M,2.92
3,V9H,2.35
4,V9Q,1.96
5,V9G,2
6,V9P,1.26
7,V9E,1.87
8,V9K,1.72
9,V9R,2.01
10,V9L,3.23
11,V9T,2.86
12,H19Y,2.79
13,H19L,1.9
14,H19M,2.59
15,H19T,3.67
16,H19K,2.34
17,H19R,2.92
18,H19W,3.38
19,H19S,2.53
20,H19I,2.01
21,H19G,3.33
22,H19C,1.84
23,H19D,2.72
24,H19F,3.5
25,H19E,3.29

row,Variant,protein stability index
1,E7Y,4.43
2,E7K,2.25
3,E7S,2.57
4,E7D,3.99
5,E7I,2.74
6,E7M,4.26
7,E7F,2.42
8,E7W,2.78
9,E7Q,2.55
10,E7V,1.8
11,E7T,1.99
12,E7R,2.81
13,E7G,4.42
14,E7C,3.72
15,E7A,2.02
16,H13K,1.73
17,H13Q,1.22
18,H13R,1.55
19,H13E,2.49
20,H13C,2.35
21,H13W,1.27
22,H13F,1.28
23,H13D,2.57
24,H13G,3.66
25,H13Y,3.92

row,Variant,protein stability index
1,H13M,2.07
2,H13I,2.85
3,H13N,2.28
4,I5K,2.16
5,I5S,1.69
6,I5R,2.2
7,I5H,2.44
8,I5W,2.01
9,I5F,2.79
10,I5N,1.71
11,I5P,1.81
12,I5T,2.89
13,I5E,2.3
14,I5M,4.53
15,I5Q,1.73
16,M15W,3.1
17,M15F,1.84
18,M15D,1.8
19,M15P,1.81
20,M15Y,2.85
21,M15Q,1.22
22,M15N,1.52
23,M15G,2.05
24,M15V,2.57
25,M15E,2.68

row,Variant,protein stability index
1,M15S,2.6
2,M15I,2.31
3,M15K,2.42
4,M15H,2.24
5,M15C,2.85
6,L22R,1.03
7,L22I,3.05
8,L22C,3.02
9,L22T,3.01
10,L22H,1.99
11,L22F,2.66
12,L22Y,1.95
13,L22E,2.96
14,L22G,2.03
15,L22Q,1.62
16,L22W,2.28
17,L22K,2.53
18,L22N,2.03
19,L22A,2.87
20,L22P,1.82
21,L22S,2.34
22,A8R,1.5
23,A8Q,2.42
24,A8K,2.86
25,A8T,3.67

row,Variant,protein stability index
1,A8M,3.63
2,A8W,4.4
3,A8V,2.26
4,A8D,2.04
5,A8P,2.9
6,A8G,3.6
7,A8Y,2.54
8,A8C,2.57
9,A8H,2.39
10,A8F,3.18
11,V17T,3.89
12,V17Q,2.79
13,V17G,3.75
14,V17F,1.59
15,V17A,1.8
16,V17Y,3.53
17,V17I,1.95
18,V17D,2.57
19,V17N,3.21
20,V17L,2.42
21,V17H,1.99
22,V17C,2.21
23,V17M,2.44
24,V17R,3.99
25,V17E,2.01

row,Variant,protein stability index
1,V17P,2.65
2,G16D,2.41
3,G16K,1.11
4,G16I,2.24
5,G16M,3.07
6,G16R,1.6
7,G16W,1.79
8,G16V,1.3
9,G16E,3.1
10,G16P,2.69
11,G16C,2.97
12,G16Y,1.91
13,G16H,2.16
14,G16Q,3.06
15,G16N,3.04
16,P24W,1.82
17,P24F,2.58
18,P24D,2.99
19,P24R,2.44
20,P24G,2.88
21,P24I,3.7
22,P24Q,1.86
23,P24Y,3
24,P24K,2.31
25,P24L,1.78

row,Variant,protein stability index
1,P24S,2.12
2,P24C,1.95
3,P24M,3.07
4,Q14T,3.88
5,Q14Y,3.42
6,Q14N,1.28
7,Q14E,3.49
8,Q14I,2.86
9,Q14P,2
10,Q14L,3.6
11,Q14W,2.76
12,Q14K,3.21
13,Q14C,2.78
14,Q14H,2.38
15,Q14R,1.94
16,Q14A,2.29
17,Q14F,2.94
18,Q14D,3.09
19,Q14S,2.83
20,D21Q,2.22
21,D21K,4.29
22,D21L,3.01
23,D21F,2.97
24,D21R,2.75
25,D21C,2.86

row,Variant,protein stability index
1,D21A,4.17
2,D21G,2.28
3,D21N,4.66
4,D21W,3.37
5,D21I,3.1
6,D21S,1.66
7,D21H,2.62
8,D21M,2.17
9,D21T,2.36
10,D21P,2.07
11,L10S,2.21
12,L10M,3.74
13,L10F,2.72
14,L10R,2.37
15,L10T,2.11
16,L10V,3.33
17,L10K,1.9
18,L10Q,2.19
19,L10P,1.66
20,L10E,1.53
21,L10D,1.95
22,L10G,1.67
23,L10A,1.35
24,L10W,4.24
25,L10N,2.05

row,Variant,protein stability index
1,L10H,2.19
2,V18T,2.33
3,V18H,3.82
4,V18K,2.97
5,V18E,1.63
6,V18Q,3.46
7,V18S,1.92
8,V18A,2.83
9,V18F,1.78
10,V18D,2.78
11,V18I,2
12,V18C,2.28
13,V18N,2.84
14,V18P,2.35
15,V18R,1.68
16,V18Y,2.35
17,V18G,2.31
18,H11C,2.39
19,H11S,2.86
20,H11M,4.07
21,H11F,3.5
22,H11K,1.72
23,H11P,1.69
24,H11N,2.4
25,H11Q,1.9

row,Variant,protein stability index
1,H11V,1.53
2,H11D,3.55
3,H11T,2.39
4,H11E,2.91
5,H11I,3.32
6,K23L,2.73
7,K23H,3.03
8,K23I,2.2
9,K23P,2.63
10,K23D,3.12
11,K23Y,3.71
12,K23V,1.76
13,K23W,3.83
14,K23N,3.36
15,K23E,2.61
16,K23R,3.33
17,K23S,1.65
18,K23C,3.94
19,C12G,1.18
20,C12Y,3.8
21,C12T,2.74
22,C12I,2.66
23,C12M,2.79
24,C12V,2.82
25,C12R,4.86

row,Variant,protein stability index
1,C12K,1.82
2,C12D,1.54
3,C12E,2.58
4,C12A,2.34
5,C12N,3.26
6,C12H,2.98
7,C12W,2.65
8,C12L,3.33
9,C12P,1.53
10,R20C,2.37
11,R20Y,2.17
12,R20F,1.97
13,R20E,3.3
14,R20P,1.77
15,R20L,2.54
16,R20K,2.66
17,R20G,2.37
18,R20D,2.72
19,R20N,1.52
20,R20T,3.37
21,R20I,1.85
22,R20W,3.1
